T1: human recombinant IL-2Rγ (human, UniProt P31785 23-262, limits assumed)
T1 construct: Biotinylated and captured on streptavidin plates in the ELISA; also called IL-2Rg; IL2Rg
T1 sequence (looked up): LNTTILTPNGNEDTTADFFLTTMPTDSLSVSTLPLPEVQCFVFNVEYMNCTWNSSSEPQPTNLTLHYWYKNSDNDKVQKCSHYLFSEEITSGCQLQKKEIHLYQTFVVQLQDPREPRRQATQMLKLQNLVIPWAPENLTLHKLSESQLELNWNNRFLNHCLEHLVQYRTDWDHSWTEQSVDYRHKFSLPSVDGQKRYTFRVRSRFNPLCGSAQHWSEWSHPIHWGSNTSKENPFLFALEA

T2: human recombinant IL-2Rβ (human, UniProt P14784 27-239, limits assumed)
T2 construct: Biotinylated and captured on streptavidin plates in the ELISA; also called IL-2Rb; IL2Rb
T2 sequence (looked up): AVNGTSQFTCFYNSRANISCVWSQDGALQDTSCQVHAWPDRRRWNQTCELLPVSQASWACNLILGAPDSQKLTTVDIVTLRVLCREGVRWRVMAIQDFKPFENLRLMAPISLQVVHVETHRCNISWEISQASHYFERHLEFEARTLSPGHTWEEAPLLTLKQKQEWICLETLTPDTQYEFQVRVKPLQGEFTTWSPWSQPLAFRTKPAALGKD

B1: AM5O38 (bispecific antibody, human IgG1, kappa, lambda, L234A L235A)
heavy: not shown
light 1: not shown
light 2: QPVLTQPASLSASPGASASLTCTLRSGINVRDYRIFWYQQKPGSPPQYLLRYKSASDKQQGSGVPSRFSGSKDASANAGILLISGLQSEDEADYYCMIWHHDSEGHAFVFGGGTKLTVLGQPKAAPSVTLFPPSSEELQANKATLVCLISDFYPGAVTVAWKADSSPVKAGVETTTPSKQSNNKYAASSYLSLTPEQWKSHRSYSCQVTHEGSTVEKTVAPTECS
notes: κλ-body: common heavy chain, kappa anti-IL2Rγ light chain (AM5), lambda anti-MSLN light chain (O38); also called AM5O38/N
B2: AM5O41 (bispecific antibody, human IgG1, kappa, lambda, L234A L235A)
heavy: not shown
light 1: not shown
light 2: SYVLTQPPSVSVAPGKTARITCGGNKIGHRAVHWYQQKPGQAPVLVIYYTYERPSGIPERFSGSNSGNTATLTISRVEAGDEADYYCQVWDWYSEGGVVFGGGTKLTVLGQPKAAPSVTLFPPSSEELQANKATLVCLISDFYPGAVTVAWKADSSPVKAGVETTTPSKQSNNKYAASSYLSLTPEQWKSHRSYSCQVTHEGSTVEKTVAPTECS
notes: κλ-body: common heavy chain, kappa anti-IL2Rγ light chain (AM5), lambda anti-MSLN light chain (O41); also called AM5O41/N
B3: AM5O35 (bispecific antibody, human IgG1, kappa, lambda, L234A L235A)
heavy: not shown
light 1: not shown
light 2: QPVLTQPVSLSASPGASVSLTCTLRSDIRVRDYRIFWYQQKPGSPPQYLLRYKTDSDKQQGSGVPSRFSGSKDASANAGILLISGLQSEDEADYYCMIWHRTTGTSLVFGGGTKLTVLGQPKAAPSVTLFPPSSEELQANKATLVCLISDFYPGAVTVAWKADSSPVKAGVETTTPSKQSNNKYAASSYLSLTPEQWKSHRSYSCQVTHEGSTVEKTVAPTECS
notes: κλ-body: common heavy chain, kappa anti-IL2Rγ light chain (AM5), lambda anti-MSLN light chain (O35); also called AM5O35/N
B4: AM1N2-19 (bispecific antibody, human IgG1, kappa, lambda, L234A L235A)
heavy: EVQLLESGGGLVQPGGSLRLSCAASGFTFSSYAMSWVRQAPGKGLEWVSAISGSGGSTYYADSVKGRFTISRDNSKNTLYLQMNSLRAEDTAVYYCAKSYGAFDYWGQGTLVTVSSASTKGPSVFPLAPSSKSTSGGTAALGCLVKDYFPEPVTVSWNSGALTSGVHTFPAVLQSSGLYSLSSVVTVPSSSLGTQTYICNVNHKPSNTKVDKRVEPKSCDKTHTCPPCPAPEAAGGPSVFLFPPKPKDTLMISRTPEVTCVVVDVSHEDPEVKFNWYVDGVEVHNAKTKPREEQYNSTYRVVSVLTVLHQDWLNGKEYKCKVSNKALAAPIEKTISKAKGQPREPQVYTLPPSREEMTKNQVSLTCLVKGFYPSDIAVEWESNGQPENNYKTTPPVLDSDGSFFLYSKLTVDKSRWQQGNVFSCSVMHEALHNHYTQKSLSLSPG
light 1: DIQMTQSPSSLSASVGDRVTITCRASQSIYYYLNWYQQKPGKAPKLLIYDASALQSGVPSRFSGSGSGTDFTLTISSLQPEDFATYYCQQIDFTAGSITFGQGTKVEIKRTVAAPSVFIFPPSDEQLKSGTASVVCLLNNFYPREAKVQWKVDNALQSGNSQESVTEQDSKDSTYSLSSTLTLSKADYEKHKVYACEVTHQGLSSPVTKSFNRGEC
light 2: QSVLTQPPSVSGAPGQRVTISCTGSSSNIENTHTVHWYQQLPGTAPKLLIYDASIRPSGVPDRFSGSKSGTSASLAITGLQAEDEADYYCQSYDWLRGAQVFGGGTKLTVLGQPKAAPSVTLFPPSSEELQANKATLVCLISDFYPGAVTVAWKADSSPVKAGVETTTPSKQSNNKYAASSYLSLTPEQWKSHRSYSCQVTHEGSTVEKTVAPTECS
notes: κλ-body: common heavy chain, kappa anti-IL2Rγ light chain (AM1), lambda anti-HER2 light chain (N2-19); also called AM1N2-19/N
B5: AM8N2-19 (bispecific antibody, human IgG1, kappa, lambda, L234A L235A)
heavy: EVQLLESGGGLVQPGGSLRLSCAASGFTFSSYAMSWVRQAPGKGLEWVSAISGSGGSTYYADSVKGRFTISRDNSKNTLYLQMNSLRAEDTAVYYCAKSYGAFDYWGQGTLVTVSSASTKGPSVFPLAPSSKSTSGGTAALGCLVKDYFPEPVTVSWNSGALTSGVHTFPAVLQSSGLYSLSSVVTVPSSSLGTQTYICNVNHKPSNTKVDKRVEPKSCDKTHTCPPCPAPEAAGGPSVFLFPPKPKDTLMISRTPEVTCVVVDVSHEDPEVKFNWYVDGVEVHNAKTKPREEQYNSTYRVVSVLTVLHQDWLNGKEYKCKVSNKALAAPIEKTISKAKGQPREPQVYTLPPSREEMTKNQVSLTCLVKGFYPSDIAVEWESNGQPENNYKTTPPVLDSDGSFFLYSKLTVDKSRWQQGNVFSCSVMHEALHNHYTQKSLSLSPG
light 1: EIVLTQSPGTLSLSPGERATLSCRASQDVATRGLAWYQQKPGQAPRLLIYGASSRATGIPDRFSGSGSGTDFTLTISRLEPEDFAVYYCQQYELEHPATFGQGTKVEIKRTVAAPSVFIFPPSDEQLKSGTASVVCLLNNFYPREAKVQWKVDNALQSGNSQESVTEQDSKDSTYSLSSTLTLSKADYEKHKVYACEVTHQGLSSPVTKSFNRGEC
light 2: B4 light 2
notes: κλ-body: common heavy chain, kappa anti-IL2Rγ light chain (AM8), lambda anti-HER2 light chain (N2-19); also called AM8N2-19/N
B6: AM3N2-19 (bispecific antibody, human IgG1, kappa, lambda, L234A L235A)
heavy: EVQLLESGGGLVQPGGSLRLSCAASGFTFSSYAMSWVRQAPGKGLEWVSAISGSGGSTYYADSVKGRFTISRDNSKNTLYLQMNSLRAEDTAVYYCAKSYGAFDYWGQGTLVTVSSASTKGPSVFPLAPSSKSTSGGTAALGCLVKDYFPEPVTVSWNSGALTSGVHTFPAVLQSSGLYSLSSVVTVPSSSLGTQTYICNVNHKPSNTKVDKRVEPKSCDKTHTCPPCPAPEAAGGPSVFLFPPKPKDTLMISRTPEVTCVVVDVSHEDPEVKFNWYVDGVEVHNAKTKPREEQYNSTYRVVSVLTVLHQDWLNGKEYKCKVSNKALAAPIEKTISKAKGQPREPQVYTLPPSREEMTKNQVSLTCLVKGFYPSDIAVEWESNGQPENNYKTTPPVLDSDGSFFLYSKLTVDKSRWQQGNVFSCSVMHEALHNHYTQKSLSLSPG
light 1: DIQMTQSPSTLSASVGDTVTITCRASHYITTWLAWYQQKPGKAPKLLIYDVSSLESGVPSRFRGRGSGTEFTLTISSLQPDDFATYYCQQYESYSPTFGQGTKVEIKRTVAAPSVFIFPPSDEQLKSGTASVVCLLNNFYPREAKVQWKVDNALQSGNSQESVTEQDSKDSTYSLSSTLTLSKADYEKHKVYACEVTHQGLSSPVTKSFNRGEC
light 2: B4 light 2
notes: κλ-body: common heavy chain, kappa anti-IL2Rγ light chain (AM3), lambda anti-HER2 light chain (N2-19); also called AM3N2-19/N
B7: AM9N2-19 (bispecific antibody, human IgG1, kappa, lambda, L234A L235A)
heavy: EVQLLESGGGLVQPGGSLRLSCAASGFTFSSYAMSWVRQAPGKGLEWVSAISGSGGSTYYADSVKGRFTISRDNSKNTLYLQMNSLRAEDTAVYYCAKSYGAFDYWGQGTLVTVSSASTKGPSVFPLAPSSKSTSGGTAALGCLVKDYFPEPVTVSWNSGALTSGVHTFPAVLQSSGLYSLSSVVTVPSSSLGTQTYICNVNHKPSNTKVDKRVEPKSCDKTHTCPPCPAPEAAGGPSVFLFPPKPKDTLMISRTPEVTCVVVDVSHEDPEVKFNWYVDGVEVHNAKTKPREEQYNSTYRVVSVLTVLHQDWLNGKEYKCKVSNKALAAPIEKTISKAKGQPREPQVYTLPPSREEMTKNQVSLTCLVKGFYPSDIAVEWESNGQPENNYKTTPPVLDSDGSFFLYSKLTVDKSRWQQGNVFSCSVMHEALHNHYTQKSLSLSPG
light 1: not shown
light 2: B4 light 2
notes: κλ-body: common heavy chain, kappa anti-IL2Rγ light chain (AM9), lambda anti-HER2 light chain (N2-19); also called AM9N2-19/N
B8: AM4N2-19 (bispecific antibody, human IgG1, kappa, lambda, L234A L235A)
heavy: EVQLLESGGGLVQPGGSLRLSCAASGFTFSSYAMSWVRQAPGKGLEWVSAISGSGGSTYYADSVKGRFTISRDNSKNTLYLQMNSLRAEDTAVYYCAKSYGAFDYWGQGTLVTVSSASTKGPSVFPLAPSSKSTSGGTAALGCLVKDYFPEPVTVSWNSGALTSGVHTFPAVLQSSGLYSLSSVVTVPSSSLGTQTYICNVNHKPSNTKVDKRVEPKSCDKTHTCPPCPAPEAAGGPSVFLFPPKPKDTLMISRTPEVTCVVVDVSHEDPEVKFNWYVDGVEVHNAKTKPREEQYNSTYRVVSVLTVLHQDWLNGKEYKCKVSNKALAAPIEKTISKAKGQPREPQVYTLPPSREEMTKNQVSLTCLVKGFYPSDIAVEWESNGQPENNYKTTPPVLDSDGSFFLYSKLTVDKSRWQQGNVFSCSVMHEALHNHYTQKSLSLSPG
light 1: DIQMTQSPSTLSASVGDRVTITCRASQTIYGPLNWYQQKPGKAPKLLIYSTSYLESGVPSRFSGSGSGTEFTLTISSLQPDDFATYYCQQAGYASAPTFGQGTKVEIKRTVAAPSVFIFPPSDEQLKSGTASVVCLLNNFYPREAKVQWKVDNALQSGNSQESVTEQDSKDSTYSLSSTLTLSKADYEKHKVYACEVTHQGLSSPVTKSFNRGEC
light 2: B4 light 2
notes: κλ-body: common heavy chain, kappa anti-IL2Rγ light chain (AM4), lambda anti-HER2 light chain (N2-19); also called AM4N2-19/N
B9: AM5N2-19 (bispecific antibody, human IgG1, kappa, lambda, L234A L235A)
heavy: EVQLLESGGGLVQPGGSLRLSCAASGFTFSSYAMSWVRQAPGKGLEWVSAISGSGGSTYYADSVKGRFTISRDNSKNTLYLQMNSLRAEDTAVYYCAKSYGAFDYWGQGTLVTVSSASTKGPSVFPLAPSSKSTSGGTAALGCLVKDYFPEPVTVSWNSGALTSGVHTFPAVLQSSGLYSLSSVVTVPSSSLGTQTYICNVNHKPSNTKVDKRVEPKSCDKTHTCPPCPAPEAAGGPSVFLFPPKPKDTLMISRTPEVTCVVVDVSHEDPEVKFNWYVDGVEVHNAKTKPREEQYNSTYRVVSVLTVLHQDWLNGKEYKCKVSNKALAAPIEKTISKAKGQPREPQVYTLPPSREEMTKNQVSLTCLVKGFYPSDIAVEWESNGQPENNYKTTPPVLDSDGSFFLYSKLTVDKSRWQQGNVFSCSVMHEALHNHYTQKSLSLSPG
light 1: not shown
light 2: B4 light 2
notes: κλ-body: common heavy chain, kappa anti-IL2Rγ light chain (AM5), lambda anti-HER2 light chain (N2-19); also called AM5N2-19/N
B10: AM2N2-19 (bispecific antibody, human IgG1, kappa, lambda, L234A L235A)
heavy: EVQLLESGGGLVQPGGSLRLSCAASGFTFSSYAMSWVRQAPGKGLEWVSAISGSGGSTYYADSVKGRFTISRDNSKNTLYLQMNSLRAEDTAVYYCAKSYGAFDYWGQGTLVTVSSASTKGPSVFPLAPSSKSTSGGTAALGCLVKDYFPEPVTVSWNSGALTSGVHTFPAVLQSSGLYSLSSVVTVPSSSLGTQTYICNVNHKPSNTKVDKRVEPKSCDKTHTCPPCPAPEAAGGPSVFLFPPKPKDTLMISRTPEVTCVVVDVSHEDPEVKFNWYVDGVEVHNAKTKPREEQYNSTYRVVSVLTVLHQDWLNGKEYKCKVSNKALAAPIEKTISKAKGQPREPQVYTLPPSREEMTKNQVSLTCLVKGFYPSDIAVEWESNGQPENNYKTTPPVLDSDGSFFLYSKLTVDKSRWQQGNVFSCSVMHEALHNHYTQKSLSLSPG
light 1: DIQLTQSPSFLSASVGDRVTITCRASQTIDAPLRWYQQKPGKAPKLLIYLTSSLQSGVPSRFSGSGSGTEFTLTISSLQPEDFATYYCQQGYAAGPSTFGQGTKVEIKRTVAAPSVFIFPPSDEQLKSGTASVVCLLNNFYPREAKVQWKVDNALQSGNSQESVTEQDSKDSTYSLSSTLTLSKADYEKHKVYACEVTHQGLSSPVTKSFNRGEC
light 2: B4 light 2
notes: κλ-body: common heavy chain, kappa anti-IL2Rγ light chain (AM2), lambda anti-HER2 light chain (N2-19); also called AM2N2-19/N
B11: AM7N2-19 (bispecific antibody, human IgG1, kappa, lambda, L234A L235A)
heavy: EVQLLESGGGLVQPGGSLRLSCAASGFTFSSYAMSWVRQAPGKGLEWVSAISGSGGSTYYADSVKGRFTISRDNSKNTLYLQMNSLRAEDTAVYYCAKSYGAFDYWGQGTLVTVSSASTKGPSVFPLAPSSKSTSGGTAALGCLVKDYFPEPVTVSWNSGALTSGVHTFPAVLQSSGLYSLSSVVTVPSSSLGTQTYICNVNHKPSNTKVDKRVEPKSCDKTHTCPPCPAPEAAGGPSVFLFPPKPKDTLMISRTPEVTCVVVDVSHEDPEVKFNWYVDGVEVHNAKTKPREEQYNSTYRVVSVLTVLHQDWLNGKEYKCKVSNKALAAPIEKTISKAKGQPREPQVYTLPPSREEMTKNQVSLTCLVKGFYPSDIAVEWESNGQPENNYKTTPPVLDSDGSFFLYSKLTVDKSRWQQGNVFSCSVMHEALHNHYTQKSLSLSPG
light 1: DIQLTQSPSFLSASVGDRVTITCRASQDIGIELAWYQQKPGKAPKLLIYFESHLQSGVPSRFSGSGSGTEFTLTISSLQPEDFATYYCQQIRIDPTFGQGTKVEIKRTVAAPSVFIFPPSDEQLKSGTASVVCLLNNFYPREAKVQWKVDNALQSGNSQESVTEQDSKDSTYSLSSTLTLSKADYEKHKVYACEVTHQGLSSPVTKSFNRGEC
light 2: B4 light 2
notes: κλ-body: common heavy chain, kappa anti-IL2Rγ light chain (AM7), lambda anti-HER2 light chain (N2-19); also called AM7N2-19/N
B12: AM11N2-19 (bispecific antibody, human IgG1, kappa, lambda, L234A L235A)
heavy: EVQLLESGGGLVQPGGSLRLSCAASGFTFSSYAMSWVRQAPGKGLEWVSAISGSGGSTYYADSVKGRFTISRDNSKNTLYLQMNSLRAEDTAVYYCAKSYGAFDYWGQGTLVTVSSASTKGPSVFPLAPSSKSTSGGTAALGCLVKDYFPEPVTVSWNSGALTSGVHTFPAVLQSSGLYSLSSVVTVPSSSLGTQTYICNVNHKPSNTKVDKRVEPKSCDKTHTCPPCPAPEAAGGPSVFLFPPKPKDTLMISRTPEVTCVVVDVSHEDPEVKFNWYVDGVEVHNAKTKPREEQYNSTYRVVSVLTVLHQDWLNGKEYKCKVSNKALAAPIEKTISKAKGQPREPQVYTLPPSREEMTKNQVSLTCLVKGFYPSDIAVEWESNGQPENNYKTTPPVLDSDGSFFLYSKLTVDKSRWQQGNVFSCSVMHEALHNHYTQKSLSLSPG
light 1: EIVLTQSPGTLSLSPGERATLSCRASQNVNHNFLTWYQQKPGQAPRLLIYSASARATGIPDRFSGSGSGTDFTLTISRLEPEDFAVYYCQQFNYAPLTFGQGTKVEIKRTVAAPSVFIFPPSDEQLKSGTASVVCLLNNFYPREAKVQWKVDNALQSGNSQESVTEQDSKDSTYSLSSTLTLSKADYEKHKVYACEVTHQGLSSPVTKSFNRGEC
light 2: B4 light 2
notes: κλ-body: common heavy chain, kappa anti-IL2Rγ light chain (AM11), lambda anti-HER2 light chain (N2-19); also called AM11N2-19/N
B13: AM6N2-19 (bispecific antibody, human IgG1, kappa, lambda, L234A L235A)
heavy: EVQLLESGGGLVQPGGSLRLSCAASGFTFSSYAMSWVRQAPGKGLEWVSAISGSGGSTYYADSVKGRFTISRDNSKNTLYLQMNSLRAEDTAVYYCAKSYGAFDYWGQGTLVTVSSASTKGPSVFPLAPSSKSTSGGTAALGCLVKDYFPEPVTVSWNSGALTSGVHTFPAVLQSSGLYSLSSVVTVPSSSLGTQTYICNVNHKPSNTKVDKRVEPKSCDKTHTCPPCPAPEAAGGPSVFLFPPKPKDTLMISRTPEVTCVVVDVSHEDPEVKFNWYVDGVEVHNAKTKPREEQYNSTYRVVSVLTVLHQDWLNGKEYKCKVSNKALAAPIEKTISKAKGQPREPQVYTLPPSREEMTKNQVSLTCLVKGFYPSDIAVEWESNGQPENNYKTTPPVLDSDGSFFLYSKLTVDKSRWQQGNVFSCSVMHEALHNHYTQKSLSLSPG
light 1: not shown
light 2: B4 light 2
notes: κλ-body: common heavy chain, kappa anti-IL2Rγ light chain (AM6), lambda anti-HER2 light chain (N2-19); also called AM6N2-19/N
B14: AM10N2-19 (bispecific antibody, human IgG1, kappa, lambda, L234A L235A)
heavy: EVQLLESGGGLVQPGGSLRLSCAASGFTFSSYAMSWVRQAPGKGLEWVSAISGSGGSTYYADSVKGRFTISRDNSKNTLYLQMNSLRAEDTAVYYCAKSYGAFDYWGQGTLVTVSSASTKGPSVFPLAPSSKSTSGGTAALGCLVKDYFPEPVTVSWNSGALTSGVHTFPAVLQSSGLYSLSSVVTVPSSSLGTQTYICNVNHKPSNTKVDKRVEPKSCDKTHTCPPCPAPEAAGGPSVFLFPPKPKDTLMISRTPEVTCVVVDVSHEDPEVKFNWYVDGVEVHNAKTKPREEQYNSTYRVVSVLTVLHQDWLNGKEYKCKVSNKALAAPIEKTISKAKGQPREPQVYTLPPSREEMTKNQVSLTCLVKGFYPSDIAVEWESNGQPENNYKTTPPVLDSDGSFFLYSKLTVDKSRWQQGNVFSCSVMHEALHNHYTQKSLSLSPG
light 1: not shown
light 2: B4 light 2
notes: κλ-body: common heavy chain, kappa anti-IL2Rγ light chain (AM10), lambda anti-HER2 light chain (N2-19); also called AM10N2-19/N
B15: AL4O30 (bispecific antibody, human IgG1, kappa, lambda, L234A L235A)
heavy: not shown
light 1: DIQMTQSPSSLSASVGDRVTITCRASQSIDEYLNWYQQKPGKAPKLLIYEASKLQSGVPSRFSGSGSGTDFTLTISSLQPEDFATYYCQQDGAMDTYATFGQGTKVEIKRTVAAPSVFIFPPSDEQLKSGTASVVCLLNNFYPREAKVQWKVDNALQSGNSQESVTEQDSKDSTYSLSSTLTLSKADYEKHKVYACEVTHQGLSSPVTKSFNRGEC
light 2: not shown
notes: κλ-body: common heavy chain, kappa anti-IL2Rβ light chain (AL4), lambda anti-MSLN light chain (O30); also called AL4O30/N
B16: AL4O35 (bispecific antibody, human IgG1, kappa, lambda, L234A L235A)
heavy: not shown
light 1: B15 light 1
light 2: B3 light 2
notes: κλ-body: common heavy chain, kappa anti-IL2Rβ light chain (AL4), lambda anti-MSLN light chain (O35); also called AL4O35/N

biological target: T1, human recombinant IL-2Rγ; assay: direct ELISA, biotinylated recombinant protein on streptavidin plates

Row | Binder | binding result
1 | B1 | binds
2 | B2 | binds
3 | B3 | binds
4 | B4 | binds
5 | B5 | binds
6 | B6 | binds
7 | B7 | binds
8 | B8 | binds
9 | B9 | binds
10 | B10 | binds
11 | B11 | binds
12 | B12 | binds
13 | B13 | binds
14 | B14 | binds

biological target: T3, human recombinant HER2 (human, UniProt P04626 23-652); assay: as above
T3 construct: Biotinylated and captured on streptavidin plates in the ELISA; also called human epidermal growth factor receptor 2

Row | Binder | binding result
15 | B4 | binds
16 | B5 | binds
17 | B6 | binds
18 | B7 | binds
19 | B8 | binds
20 | B9 | binds
21 | B10 | binds
22 | B11 | binds
23 | B12 | binds
24 | B13 | binds
25 | B14 | binds

biological target: T2, human recombinant IL-2Rβ; assay: as above

Row | Binder | binding result
26 | B15 | binds
27 | B16 | binds

Source: patent US20230295348A1 (NOVIMMUNE, published 2023)
